We go through one molecule from US20210087243A1.

This test concerns the target T1, linear CGQKLVG-conjugated-BSA.
T1 sequence (peptide, conjugated to BSA): CGQKLVG
Put plainly: SPR direct binding (MASS-1), linear peptide-BSA immobilised, supernatant flowed.

B1: 305-61 (7E9) (antibody, mouse IgG3, V domains shown)
VH: QVQLQQSGAELVRPGASVTLSCKASGYTFTDYEMHWVKQTPVHGLEWIGAIDPETGDTAYNQEFKGKATLTADKSSSTAYMELRSLTSEDSAVYYCTSPIYYDYDWFAYWGHGTLVTVSA
VL: DIVMSQSPSSLAVSAGEKVTMSCKSSQSLLNNRTRKNYLAWYQQKPGQSPKLLIYWASTRESGVPDRFTGSGSGTDFTLTISSVQAEDLAVYYCKQSYNLRTFGGGTKLEIKR
Consider B1, for which the binding response (RU) is 7.7 RU.
